Columns and labels:
[1] = molecular target: LgBiT-p62 (p62 fused at its N-terminus to the Large BiT luciferase fragment; expressed from pLgBiT-p62) (not stated (cDNA from total RNA of HeLa cells)) (UniProt Q13501); assay: NanoBiT split-luciferase complementation in HeLa cells co-transfected with pLgBiT-p62 and pSmBiT-DDX5, treated with 10 uM AUTAC2-2G, AUTAC4-2G, 8-nitro-cGMP or FBnG; read 10 min after start of measurement (FIG. 1)
[2] = molecular target: LgBiT-p62 (p62 fused at its N-terminus to the Large BiT luciferase fragment; expressed from pLgBiT-p62) (not stated (cDNA from total RNA of HeLa cells)) (UniProt Q13501); assay: NanoBiT split-luciferase complementation in HeLa cells co-transfected with pLgBiT-p62 and pSmBiT-DDX5, treated with 10 uM of compounds 5 to 33 or AUTAC2-2G; read 10 min after start of measurement (FIG. 2)
[3] = molecular target: LgBiT-p62 (p62 fused at its N-terminus to the Large BiT luciferase fragment; expressed from pLgBiT-p62) (not stated (cDNA from total RNA of HeLa cells)) (UniProt Q13501); assay: NanoBiT split-luciferase complementation in HeLa cells co-transfected with pLgBiT-p62 and pSmBiT-DDX5; told of each of AUTAC2-2G, AUTAC4-2G, 8-nitro-cGMP and FBnG at 10 uM
[4] = molecular target: LgBiT-p62 (p62 fused at its N-terminus to the Large BiT luciferase fragment; expressed from pLgBiT-p62) (not stated (cDNA from total RNA of HeLa cells)) (UniProt Q13501); assay: NanoBiT split-luciferase complementation in HeLa cells co-transfected with pLgBiT-p62 and pSmBiT-DDX5; told of each of compounds 5 to 33 at 10 uM, 24 h

## SmBiT-DDX5 (DDX5, DEAD box protein 5, fused at its N-terminus to the Small BiT luciferase fragment; expressed from pSmBiT-DDX5) (from UniProt P17844 1-614)
[1]
  emission intensity (NanoBiT luminescence): 1e+07
[2]
  emission intensity (NanoBiT luminescence): > 1e+07
[3]
  emission intensity, fold over cells treated with DMSO (times (vs DMSO-treated cells)): > 1000
[4]
  emission intensity, fold over cells treated with DMSO (times (vs DMSO-treated cells)): > 1000

From patent US20260276625A1, “SCREENING METHOD FOR COMPOUND INDUCING AUTOPHAGY” (TOHOKU UNIVERSITY, priority 2023, published 2026)
